The sequences below were run on Escherichia coli TOP10 (assay: shrunken log2 fold change of peptide-encoding DNA abundance (4.5 h post-induction vs induction); higher = less antimicrobial activity (less host growth inhibition)). Settings: time post-induction: 4.5 h; library: site-saturation at positions 5, 18, 19, 20.
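Note: peptides expressed intracellularly from a pBAD plasmid library in pooled LB shake-flask culture, induced with 0.3% L-arabinose, DNA abundance read by NGS, three biological replicates, DESeq2 with apeglm shrinkage.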

| Sequence | shrunken log2 fold change |
| --- | --- |
| RRIRSRPPRLPRPRPRPNVFPRP | -0.075 |
| RRIRSRPPRLPRPRPRPSHGPRP | -0.19 |
| RRIRMRPPRLPRPRPRPGRGPRP | 1.26 |
| RRIRHRPPRLPRPRPRPRADPRP | 0.185 |
| RRIRTRPPRLPRPRPRPPLQPRP | 0.369 |
| RRIRFRPPRLPRPRPRPSGGPRP | -0.103 |
| RRIRTRPPRLPRPRPRPYHMPRP | -0.293 |
| RRIRWRPPRLPRPRPRPTRGPRP | 0.329 |
| RRIRFRPPRLPRPRPRPIVYPRP | -0.181 |
| RRIRTRPPRLPRPRPRPNHNPRP | -0.914 |
| RRIRMRPPRLPRPRPRPFWNPRP | -0.266 |
| RRIRSRPPRLPRPRPRPAPSPRP | 1.24 |
| RRIRIRPPRLPRPRPRPVECPRP | 0.00902 |
| RRIRWRPPRLPRPRPRPLIAPRP | 0.273 |
| RRIRARPPRLPRPRPRPHTSPRP | -0.218 |
| RRIRIRPPRLPRPRPRPDCQPRP | 0.000528 |
| RRIRLRPPRLPRPRPRPIWDPRP | -0.0847 |
| RRIRIRPPRLPRPRPRPQQQPRP | -0.061 |
| RRIRERPPRLPRPRPRPKAGPRP | 0.174 |
| RRIRDRPPRLPRPRPRPSCNPRP | -0.493 |
| RRIRHRPPRLPRPRPRPECVPRP | 0.321 |
| RRIRERPPRLPRPRPRPQKMPRP | -0.28 |
| RRIRVRPPRLPRPRPRPWCKPRP | 0.0335 |
| RRIRYRPPRLPRPRPRPILCPRP | -0.0389 |
| RRIRSRPPRLPRPRPRPAMSPRP | -0.0932 |

| Sequence | shrunken log2 fold change |
| --- | --- |
| RRIRPRPPRLPRPRPRPQDGPRP | 0.0623 |
| RRIRLRPPRLPRPRPRPAYKPRP | -0.00989 |
| RRIRARPPRLPRPRPRPMRIPRP | 0.155 |
| RRIRQRPPRLPRPRPRPYVNPRP | -0.00544 |
| RRIRRRPPRLPRPRPRPKYYPRP | -0.199 |
| RRIRQRPPRLPRPRPRPRGPPRP | 0.0418 |
| RRIRQRPPRLPRPRPRPHTRPRP | 0.107 |
| RRIRFRPPRLPRPRPRPCNCPRP | -0.166 |
| RRIRIRPPRLPRPRPRPQMRPRP | 0.0729 |
| RRIRIRPPRLPRPRPRPHRMPRP | -1.01 |
| RRIRPRPPRLPRPRPRPINNPRP | 0.81 |
| RRIRVRPPRLPRPRPRPLVDPRP | -0.196 |
| RRIRQRPPRLPRPRPRPWYFPRP | -0.289 |
| RRIRARPPRLPRPRPRPPKKPRP | 0.342 |
| RRIRARPPRLPRPRPRPNLVPRP | -0.0779 |
| RRIRDRPPRLPRPRPRPDNYPRP | -0.117 |
| RRIRCRPPRLPRPRPRPHGMPRP | -0.114 |
| RRIRYRPPRLPRPRPRPDFKPRP | -0.261 |
| RRIRERPPRLPRPRPRPAKHPRP | -0.107 |
| RRIRRRPPRLPRPRPRPTYPPRP | 0.0623 |
| RRIRVRPPRLPRPRPRPQPLPRP | -0.109 |
| RRIRRRPPRLPRPRPRPVIPPRP | 0.272 |
| RRIRGRPPRLPRPRPRPQQPPRP | 0.423 |
| RRIRSRPPRLPRPRPRPIHRPRP | -0.172 |
| RRIRIRPPRLPRPRPRPHRWPRP | -0.0221 |

| Sequence | shrunken log2 fold change |
| --- | --- |
| RRIRYRPPRLPRPRPRPFKQPRP | -1.41 |
| RRIRHRPPRLPRPRPRPFEFPRP | -0.0195 |
| RRIRHRPPRLPRPRPRPLRYPRP | -0.388 |
| RRIRFRPPRLPRPRPRPFCSPRP | -0.486 |
| RRIRFRPPRLPRPRPRPPDWPRP | 0.701 |
| RRIRPRPPRLPRPRPRPHIQPRP | -0.312 |
| RRIRQRPPRLPRPRPRPAIQPRP | -0.679 |
| RRIRSRPPRLPRPRPRPRTIPRP | -0.141 |
| RRIRCRPPRLPRPRPRPWKCPRP | -0.0193 |
| RRIRTRPPRLPRPRPRPLPEPRP | 0.126 |
| RRIRTRPPRLPRPRPRPDNWPRP | -0.244 |
| RRIRGRPPRLPRPRPRPIMVPRP | -0.0212 |
| RRIRCRPPRLPRPRPRPVKYPRP | -0.596 |
| RRIRTRPPRLPRPRPRPNFRPRP | -0.152 |
| RRIRNRPPRLPRPRPRPCMWPRP | -0.0288 |
| RRIRRRPPRLPRPRPRPYMFPRP | -0.448 |
| RRIRDRPPRLPRPRPRPMHHPRP | -0.146 |
| RRIRSRPPRLPRPRPRPTVTPRP | 0.166 |
| RRIRERPPRLPRPRPRPKNAPRP | -0.352 |
| RRIRWRPPRLPRPRPRPKRWPRP | 0.441 |
| RRIRHRPPRLPRPRPRPQEFPRP | -0.00101 |
| RRIRFRPPRLPRPRPRPPNNPRP | -0.445 |
| RRIRSRPPRLPRPRPRPTTPPRP | 0.502 |
| RRIRMRPPRLPRPRPRPFIYPRP | 0.892 |
| RRIRQRPPRLPRPRPRPKHCPRP | 0.0753 |

| Sequence | shrunken log2 fold change |
| --- | --- |
| RRIRPRPPRLPRPRPRPHNLPRP | -0.131 |
| RRIRERPPRLPRPRPRPLYIPRP | -0.668 |
| RRIRIRPPRLPRPRPRPLYIPRP | -0.695 |
| RRIRFRPPRLPRPRPRPSRGPRP | 0.485 |
| RRIRYRPPRLPRPRPRPNFAPRP | 0.137 |
| RRIRRRPPRLPRPRPRPELAPRP | 0.927 |
| RRIRRRPPRLPRPRPRPSVMPRP | 0.157 |
| RRIRFRPPRLPRPRPRPHAEPRP | -0.00295 |
| RRIRFRPPRLPRPRPRPWGEPRP | 0.0156 |
| RRIRNRPPRLPRPRPRPNVSPRP | 0.0376 |
| RRIRDRPPRLPRPRPRPLLEPRP | 0.31 |
| RRIRWRPPRLPRPRPRPGKLPRP | -0.368 |
| RRIRRRPPRLPRPRPRPFSGPRP | -0.32 |
| RRIRQRPPRLPRPRPRPWFLPRP | -0.0618 |
| RRIRIRPPRLPRPRPRPSITPRP | 0.141 |
| RRIRARPPRLPRPRPRPDNHPRP | -0.0167 |
| RRIRMRPPRLPRPRPRPDIIPRP | 1.42 |
| RRIRPRPPRLPRPRPRPHDKPRP | -0.271 |
| RRIRTRPPRLPRPRPRPVLGPRP | 0.304 |
| RRIRFRPPRLPRPRPRPEKYPRP | -0.397 |
| RRIRERPPRLPRPRPRPTERPRP | 0.0425 |
| RRIRDRPPRLPRPRPRPANIPRP | -0.114 |
| RRIRIRPPRLPRPRPRPFQHPRP | -0.214 |
| RRIRERPPRLPRPRPRPRVDPRP | 0.0531 |
| RRIRPRPPRLPRPRPRPGADPRP | 0.407 |

| Sequence | shrunken log2 fold change |
| --- | --- |
| RRIRPRPPRLPRPRPRPDEPPRP | 0.0641 |
| RRIRGRPPRLPRPRPRPSLIPRP | 0.211 |
| RRIRPRPPRLPRPRPRPMTFPRP | -0.0264 |
| RRIRPRPPRLPRPRPRPMQLPRP | 0.406 |
| RRIRTRPPRLPRPRPRPQVSPRP | -0.0699 |
| RRIRSRPPRLPRPRPRPNIRPRP | 0.0389 |
| RRIRYRPPRLPRPRPRPLPVPRP | -0.142 |
| RRIRWRPPRLPRPRPRPKPCPRP | 0.229 |
| RRIRRRPPRLPRPRPRPYCPPRP | -0.187 |
| RRIRWRPPRLPRPRPRPGMPPRP | 0.294 |
| RRIRTRPPRLPRPRPRPNHAPRP | 0.176 |
| RRIRQRPPRLPRPRPRPQYAPRP | -0.176 |
| RRIRQRPPRLPRPRPRPPHRPRP | 0.445 |
| RRIRFRPPRLPRPRPRPVIAPRP | -0.186 |
| RRIRMRPPRLPRPRPRPMENPRP | 0.76 |
| RRIRTRPPRLPRPRPRPGDAPRP | 0.206 |
| RRIRGRPPRLPRPRPRPVERPRP | 0.5 |
| RRIRNRPPRLPRPRPRPEQHPRP | 0.0592 |
| RRIRNRPPRLPRPRPRPSATPRP | -0.0839 |
| RRIRYRPPRLPRPRPRPEWNPRP | -0.861 |
| RRIRFRPPRLPRPRPRPMILPRP | -0.29 |
| RRIRDRPPRLPRPRPRPCPWPRP | 0.0761 |
| RRIRDRPPRLPRPRPRPCHIPRP | -0.251 |
| RRIRHRPPRLPRPRPRPQVAPRP | 0.0753 |
| RRIRFRPPRLPRPRPRPYYLPRP | -0.392 |

| Sequence | shrunken log2 fold change |
| --- | --- |
| RRIRLRPPRLPRPRPRPGRNPRP | -0.0488 |
| RRIRHRPPRLPRPRPRPDHFPRP | -0.169 |
| RRIRVRPPRLPRPRPRPCRNPRP | -0.0211 |
| RRIRLRPPRLPRPRPRPKTPPRP | 0.526 |
| RRIRIRPPRLPRPRPRPVQPPRP | 0.204 |
| RRIRQRPPRLPRPRPRPYAAPRP | -0.175 |
| RRIRIRPPRLPRPRPRPEHTPRP | -0.464 |
| RRIRVRPPRLPRPRPRPQMNPRP | -0.0919 |
| RRIRIRPPRLPRPRPRPTEWPRP | 0.133 |
| RRIRDRPPRLPRPRPRPWDWPRP | 1.03 |
| RRIRDRPPRLPRPRPRPHQTPRP | 0.0267 |
| RRIRHRPPRLPRPRPRPQSWPRP | 0.0657 |
| RRIRQRPPRLPRPRPRPDKMPRP | 0.021 |
| RRIRRRPPRLPRPRPRPYSGPRP | -0.000826 |
| RRIRLRPPRLPRPRPRPWNLPRP | -0.0149 |
| RRIRTRPPRLPRPRPRPLYAPRP | -0.274 |
| RRIRGRPPRLPRPRPRPKWMPRP | 0.58 |
| RRIRLRPPRLPRPRPRPCQGPRP | 0.00157 |
| RRIRTRPPRLPRPRPRPRYRPRP | -0.0728 |
| RRIRRRPPRLPRPRPRPKKAPRP | -0.00843 |
| RRIRCRPPRLPRPRPRPDDCPRP | 0.112 |
| RRIRLRPPRLPRPRPRPHHHPRP | -0.6 |
| RRIRGRPPRLPRPRPRPDMMPRP | 0.023 |
| RRIRYRPPRLPRPRPRPLVGPRP | -0.457 |
| RRIRKRPPRLPRPRPRPQWFPRP | -0.185 |
